# Test system: Escherichia coli TOP10
# Assay: shrunken log2 fold change of peptide-encoding DNA abundance (4.5 h post-induction vs induction); higher = less antimicrobial activity (less host growth inhibition)
# Details: time post-induction: 4.5 h; library: site-saturation at positions 5, 18, 19, 20
# 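Note: peptides expressed intracellularly from a pBAD plasmid library in pooled LB shake-flask culture, induced with 0.3% L-arabinose, DNA abundance read by NGS, three biological replicates, DESeq2 with apeglm shrinkage.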
row,Sequence,shrunken log2 fold change
1,RRIRERPPRLPRPRPRPSSMPRP,-0.284
2,RRIRFRPPRLPRPRPRPMWVPRP,-0.00617
3,RRIRWRPPRLPRPRPRPLKSPRP,0.183
4,RRIRPRPPRLPRPRPRPMCFPRP,-0.405
5,RRIRGRPPRLPRPRPRPQFFPRP,-0.0486
6,RRIRWRPPRLPRPRPRPYADPRP,-0.0623
7,RRIRRRPPRLPRPRPRPTFEPRP,0.358
8,RRIRDRPPRLPRPRPRPIMMPRP,-0.232
9,RRIRVRPPRLPRPRPRPKTIPRP,-0.26
10,RRIRKRPPRLPRPRPRPNVWPRP,0.258
11,RRIRVRPPRLPRPRPRPAHSPRP,0.0902
12,RRIRQRPPRLPRPRPRPRSAPRP,0.319
13,RRIRIRPPRLPRPRPRPCEAPRP,-0.395
14,RRIRWRPPRLPRPRPRPLPSPRP,0.515
15,RRIRRRPPRLPRPRPRPSGVPRP,-0.181
16,RRIRWRPPRLPRPRPRPRRRPRP,1.3
17,RRIRRRPPRLPRPRPRPMNKPRP,0.0717
18,RRIRWRPPRLPRPRPRPRCDPRP,0.429
19,RRIRRRPPRLPRPRPRPVFTPRP,0.188
20,RRIRVRPPRLPRPRPRPMIIPRP,-1.25
21,RRIRQRPPRLPRPRPRPGSDPRP,0.337
22,RRIRQRPPRLPRPRPRPEPQPRP,0.00762

row,Sequence,shrunken log2 fold change
1,RRIRIRPPRLPRPRPRPLVRPRP,0.0548
2,RRIRSRPPRLPRPRPRPWPQPRP,0.0548
3,RRIRERPPRLPRPRPRPQSDPRP,-0.134
4,RRIRRRPPRLPRPRPRPELWPRP,0.518
5,RRIRERPPRLPRPRPRPVHVPRP,-0.389
6,RRIRGRPPRLPRPRPRPRDHPRP,0.978
7,RRIRFRPPRLPRPRPRPERIPRP,-0.352
8,RRIRVRPPRLPRPRPRPSWDPRP,0.192
9,RRIRERPPRLPRPRPRPIEQPRP,-0.00133
10,RRIRCRPPRLPRPRPRPGCLPRP,0.115
11,RRIRFRPPRLPRPRPRPAASPRP,0.0986
12,RRIRARPPRLPRPRPRPYGYPRP,-0.294
13,RRIRDRPPRLPRPRPRPFFDPRP,0.266
14,RRIRSRPPRLPRPRPRPLWAPRP,0.206
15,RRIRGRPPRLPRPRPRPKVFPRP,-0.00639
16,RRIRQRPPRLPRPRPRPGQDPRP,0.102
17,RRIRCRPPRLPRPRPRPHNKPRP,-0.75
18,RRIRWRPPRLPRPRPRPYAYPRP,0.0461
19,RRIRFRPPRLPRPRPRPFRMPRP,-0.173
20,RRIRLRPPRLPRPRPRPGTEPRP,-0.0405
21,RRIRRRPPRLPRPRPRPKWRPRP,0.587
22,RRIRMRPPRLPRPRPRPWHMPRP,0.00487

row,Sequence,shrunken log2 fold change
1,RRIRQRPPRLPRPRPRPSFDPRP,0.182
2,RRIRNRPPRLPRPRPRPRNLPRP,-0.0378
3,RRIRQRPPRLPRPRPRPRIGPRP,0.341
4,RRIRIRPPRLPRPRPRPGSHPRP,0.141
5,RRIRERPPRLPRPRPRPTPLPRP,0.0281
6,RRIRYRPPRLPRPRPRPNICPRP,-0.204
7,RRIRGRPPRLPRPRPRPGCLPRP,1.01
8,RRIRVRPPRLPRPRPRPQTLPRP,-0.372
9,RRIRVRPPRLPRPRPRPVSKPRP,-0.249
10,RRIRNRPPRLPRPRPRPPTFPRP,0.145
11,RRIRWRPPRLPRPRPRPAKAPRP,0.747
12,RRIRSRPPRLPRPRPRPYPNPRP,0.00334
13,RRIRNRPPRLPRPRPRPHHPPRP,-0.398
14,RRIRKRPPRLPRPRPRPVCWPRP,0.897
15,RRIRIRPPRLPRPRPRPDDLPRP,0.118
16,RRIRTRPPRLPRPRPRPKAMPRP,0.0836
17,RRIRARPPRLPRPRPRPPHWPRP,1.08
18,RRIRYRPPRLPRPRPRPYQQPRP,-0.0715
19,RRIRRRPPRLPRPRPRPIAVPRP,-0.0851
20,RRIRNRPPRLPRPRPRPCECPRP,0.0219
21,RRIRYRPPRLPRPRPRPYIMPRP,-0.223
22,RRIRYRPPRLPRPRPRPGCEPRP,0.0164

row,Sequence,shrunken log2 fold change
1,RRIRDRPPRLPRPRPRPCADPRP,0.167
2,RRIRNRPPRLPRPRPRPDVPPRP,-0.199
3,RRIRLRPPRLPRPRPRPDCSPRP,0.0574
4,RRIRLRPPRLPRPRPRPTVEPRP,0.114
5,RRIRPRPPRLPRPRPRPLCIPRP,-0.403
6,RRIRSRPPRLPRPRPRPVCEPRP,0.369
7,RRIRMRPPRLPRPRPRPFTLPRP,-0.0107
8,RRIRTRPPRLPRPRPRPCPQPRP,-0.312
9,RRIRMRPPRLPRPRPRPSKKPRP,-0.0297
10,RRIRQRPPRLPRPRPRPCCRPRP,-0.0851
11,RRIRSRPPRLPRPRPRPPHMPRP,-0.0602
12,RRIRFRPPRLPRPRPRPPAMPRP,0.775
13,RRIRDRPPRLPRPRPRPRYFPRP,0.242
14,RRIRDRPPRLPRPRPRPMAVPRP,0.417
15,RRIRGRPPRLPRPRPRPAMPPRP,0.492
16,RRIRRRPPRLPRPRPRPVMDPRP,-0.0641
17,RRIRERPPRLPRPRPRPKKCPRP,-0.0779
18,RRIRHRPPRLPRPRPRPDCIPRP,-0.0444
19,RRIRMRPPRLPRPRPRPSKDPRP,0.37
20,RRIRCRPPRLPRPRPRPRHPPRP,0.11
21,RRIRARPPRLPRPRPRPDDSPRP,0.124
22,RRIRRRPPRLPRPRPRPAHTPRP,0.448

row,Sequence,shrunken log2 fold change
1,RRIRFRPPRLPRPRPRPVKWPRP,0.0401
2,RRIRSRPPRLPRPRPRPPNTPRP,0.158
3,RRIRNRPPRLPRPRPRPLPQPRP,0.229
4,RRIRGRPPRLPRPRPRPSTVPRP,0.164
5,RRIRKRPPRLPRPRPRPMHGPRP,0.272
6,RRIRRRPPRLPRPRPRPLGAPRP,0.468
7,RRIRHRPPRLPRPRPRPIGEPRP,-0.00286
8,RRIRTRPPRLPRPRPRPMVPPRP,-0.0651
9,RRIRVRPPRLPRPRPRPEGPPRP,0.239
10,RRIRARPPRLPRPRPRPGQDPRP,0.15
11,RRIRGRPPRLPRPRPRPKEYPRP,-0.102
12,RRIRDRPPRLPRPRPRPLIAPRP,0.468
13,RRIRIRPPRLPRPRPRPCYNPRP,-0.329
14,RRIRERPPRLPRPRPRPLFTPRP,-0.55
15,RRIRFRPPRLPRPRPRPSNGPRP,-0.238
16,RRIRMRPPRLPRPRPRPCTLPRP,-0.192
17,RRIRDRPPRLPRPRPRPAIEPRP,0.0117
18,RRIRQRPPRLPRPRPRPGNIPRP,-0.151
19,RRIRKRPPRLPRPRPRPVGTPRP,2.46
20,RRIRGRPPRLPRPRPRPHLHPRP,0.227
21,RRIRQRPPRLPRPRPRPFWKPRP,-0.0968

# Reference: the supplement of paper PMC9112550, “Optimization of the antimicrobial peptide Bac7 by deep mutational scanning” (BMC Biology, 2022)
